Test results: patent US20100260668A1 (published 2010)
Blank lines part the entries; values can stand above or below the binder they belong to.

Target: VEGF (VEGF 1-165 aa, R&D Systems 293-VE-010) (UniProt P15692 27-191)
Experiment: Direct bind ELISA, VEGF coated on plate;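 note: ELISA screening of antibodies for binding to the plate-coated target antigen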
Procedure: Enzyme Linked Immunosorbent Assays to screen for antibodies that bind a desired target antigen were performed as follows. […] Plates were washed four times with PBS containing 0.02% Tween 20. Plates were blocked by the addition of 300 μL/well blocking solution (non-fat dry milk powder, various retail suppliers, diluted to 2% in PBS) for ½ hour at room temperature. Plates were washed four times after blocking with PBS containing 0.02% Tween 20.
Plates were washed 4 times with PBS containing 0.02% Tween 20.

VEGF (VEGF 1-165 aa, R&D Systems 293-VE-010), sequence (P15692 other isoform, or with tags, fused parts or gaps limits assumed): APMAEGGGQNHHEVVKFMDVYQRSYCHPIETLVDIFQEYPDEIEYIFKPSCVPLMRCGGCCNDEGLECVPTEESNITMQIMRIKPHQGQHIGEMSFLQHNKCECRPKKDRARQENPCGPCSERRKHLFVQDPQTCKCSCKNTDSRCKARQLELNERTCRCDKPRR

EC50: 3020 nM
B1: DVD515 (bispecific antibody, IgG1)
VH: EVQLQQSGPELEKPGASVKISCKASGYSFTGYNMNWVKQSNGKSLEWIGNIDPYFGGTNYNQKFKGKATLTVDKSSSTAYMQLKSLTSEDSAVYYCARNYDYDGGCFDYWGQGTTLTVSSASTKGPEVQLVESGGGLVQPGGSLRLSCAASGFTINASWIHWVRQAPGKGLEWVGAIYPYSGYTNYADSVKGRFTISADTSKNTAYLQMNSLRAEDTAVYYCARWGHSTSPWAMDYWGQGTLVTVSS
VL: QAVVTQESALTTSPGETVTLTCRSSTGAVTTSNYANWVQEKPDHLFTGLIGGTNNRAPGVPARFSGSLIGDKAALTITGAQTEDEAIYFCALWYSNHWVFGGGTKLTVLGQPKAAPDIQMTQSPSSLSASVGDRVTITCRASQVIRRSLAWYQQKPGKAPKLLIYAASNLASGVPSRFSGSGSGTDFTLTISSLQPEDFATYYCQQSNTSPLTFGQGTKVEIKR
notes: DVD-Ig, outer AB073 / inner AB071; HC linker short, LC linker short; also called DVD515H; DVD515L

EC50: 12.1 nM
B2: DVD450 (bispecific antibody, IgG1)
VH: EVQLVESGGGLVQPGGSLRLSCAASGFTISDYWIHWVRQAPGKGLEWVAGITPAGGYTYYADSVKGRFTISADTSKNTAYLQMNSLRAEDTAVYYCARFVFFLPYAMDYWGQGTLVTVSSASTKGPSVFPLAPQVQLVQSGAEVKKPGASVKISCKASGYSFTAYYIHWVKQAPGQGLEWIGYISSYNGATNYNQKFKGRVTFTTDTSTSTAYMELRSLRSDDTAVYYCARDYDYDVGMDYWGQGTLVTVSS
VL: DIQMTQSPSSLSASVGDRVTITCRASQDVSTAVAWYQQKPGKAPKLLIYSASFLYSGVPSRFSGSGSGTDFTLTISSLQPEDFATYYCQQSYTTPPTFGQGTKVEIKRTVAAPSVFIFPPDIVMTQSPDSLAVSLGERATISCRASESVDNYGISFMKWFQQKPGQPPKLLIYAASNQGSGVPDRFSGSGSGTDFTLTISSLQAEDVAVYYCQQSKEVPWTFGGGTKVEIKR
notes: HC linker long, LC linker long; also called DVD450H; DVD450L

EC50: 19.3 nM
B3: DVD464 (bispecific antibody, IgG1)
VH: EVQLVESGGGLVQPGGSLRLSCAASGFTINASWIHWVRQAPGKGLEWVGAIYPYSGYTNYADSVKGRFTISADTSKNTAYLQMNSLRAEDTAVYYCARWGHSTSPWAMDYWGQGTLVTVSSASTKGPQVQLVQSGAEVKKPGASVKISCKASGYSFTAYYIHWVKQAPGQGLEWIGYISSYNGATNYNQKFKGRVTFTTDTSTSTAYMELRSLRSDDTAVYYCARDYDYDVGMDYWGQGTLVTVSS
VL: DIQMTQSPSSLSASVGDRVTITCRASQVIRRSLAWYQQKPGKAPKLLIYAASNLASGVPSRFSGSGSGTDFTLTISSLQPEDFATYYCQQSNTSPLTFGQGTKVEIKRTVAAPSVFIFPPDIVMTQSPDSLAVSLGERATISCRASESVDNYGISFMKWFQQKPGQPPKLLIYAASNQGSGVPDRFSGSGSGTDFTLTISSLQAEDVAVYYCQQSKEVPWTFGGGTKVEIKR
notes: DVD-Ig, outer AB071 / inner AB069; HC linker short, LC linker long; also called DVD464H; DVD464L

EC50: 0.3 nM
B4: DVD524 (bispecific antibody, IgG1)
VH: EVQLVESGGGLVQPGGSLRLSCAASGYTFTNYGMNWVRQAPGKGLEWVGWINTYTGEPTYAADFKRRFTFSLDTSKSTAYLQMNSLRAEDTAVYYCAKYPHYYGSSHWYFDVWGQGTLVTVSSASTKGPSVFPLAPEVQLQQSGPELEKPGASVKISCKASGYSFTGYNMNWVKQSNGKSLEWIGNIDPYFGGTNYNQKFKGKATLTVDKSSSTAYMQLKSLTSEDSAVYYCARNYDYDGGCFDYWGQGTTLTVSS
VL: DIQMTQSPSSLSASVGDRVTITCSASQDISNYLNWYQQKPGKAPKVLIYFTSSLHSGVPSRFSGSGSGTDFTLTISSLQPEDFATYYCQQYSTVPWTFGQGTKVEIKRTVAAPQAVVTQESALTTSPGETVTLTCRSSTGAVTTSNYANWVQEKPDHLFTGLIGGTNNRAPGVPARFSGSLIGDKAALTITGAQTEDEAIYFCALWYSNHWVFGGGTKLTVLG
notes: HC linker long, LC linker short; also called DVD524H; DVD524L

EC50: 611 nM
B5: DVD443 (bispecific antibody, IgG1)
VH: QVQLVQSGAEVKKPGASVKISCKASGYSFTAYYIHWVKQAPGQGLEWIGYISSYNGATNYNQKFKGRVTFTTDTSTSTAYMELRSLRSDDTAVYYCARDYDYDVGMDYWGQGTLVTVSSASTKGPEVQLVESGGGLVQPGGSLRLSCAASGFTISDYWIHWVRQAPGKGLEWVAGITPAGGYTYYADSVKGRFTISADTSKNTAYLQMNSLRAEDTAVYYCARFVFFLPYAMDYWGQGTLVTVSS
VL: DIVMTQSPDSLAVSLGERATISCRASESVDNYGISFMKWFQQKPGQPPKLLIYAASNQGSGVPDRFSGSGSGTDFTLTISSLQAEDVAVYYCQQSKEVPWTFGGGTKVEIKRTVAAPDIQMTQSPSSLSASVGDRVTITCRASQDVSTAVAWYQQKPGKAPKLLIYSASFLYSGVPSRFSGSGSGTDFTLTISSLQPEDFATYYCQQSYTTPPTFGQGTKVEIKR
notes: HC linker short, LC linker short; also called DVD443H; DVD443L

EC50: 10.4 nM
B6: DVD461 (bispecific antibody, IgG1)
VH: B5 VH
VL: DIVMTQSPDSLAVSLGERATISCRASESVDNYGISFMKWFQQKPGQPPKLLIYAASNQGSGVPDRFSGSGSGTDFTLTISSLQAEDVAVYYCQQSKEVPWTFGGGTKVEIKRTVAAPSVFIFPPDIQMTQSPSSLSASVGDRVTITCRASQDVSTAVAWYQQKPGKAPKLLIYSASFLYSGVPSRFSGSGSGTDFTLTISSLQPEDFATYYCQQSYTTPPTFGQGTKVEIKR
notes: HC linker short, LC linker long; also called DVD461H; DVD461L

EC50: 26.7 nM
B7: DVD455 (bispecific antibody, IgG1)
VH: QVQLVQSGAEVKKPGASVKISCKASGYSFTAYYIHWVKQAPGQGLEWIGYISSYNGATNYNQKFKGRVTFTTDTSTSTAYMELRSLRSDDTAVYYCARDYDYDVGMDYWGQGTLVTVSSASTKGPSVFPLAPEVQLVESGGGLVQPGGSLRLSCAASGFTISDYWIHWVRQAPGKGLEWVAGITPAGGYTYYADSVKGRFTISADTSKNTAYLQMNSLRAEDTAVYYCARFVFFLPYAMDYWGQGTLVTVSS
VL: B5 VL
notes: HC linker long, LC linker short; also called DVD455H; DVD455L

EC50: 2.44 nM
B8: DVD444 (bispecific antibody, IgG1)
VH: EVQLVESGGGLVQPGGSLRLSCAASGFTISDYWIHWVRQAPGKGLEWVAGITPAGGYTYYADSVKGRFTISADTSKNTAYLQMNSLRAEDTAVYYCARFVFFLPYAMDYWGQGTLVTVSSASTKGPQVQLVQSGAEVKKPGASVKISCKASGYSFTAYYIHWVKQAPGQGLEWIGYISSYNGATNYNQKFKGRVTFTTDTSTSTAYMELRSLRSDDTAVYYCARDYDYDVGMDYWGQGTLVTVSS
VL: DIQMTQSPSSLSASVGDRVTITCRASQDVSTAVAWYQQKPGKAPKLLIYSASFLYSGVPSRFSGSGSGTDFTLTISSLQPEDFATYYCQQSYTTPPTFGQGTKVEIKRTVAAPDIVMTQSPDSLAVSLGERATISCRASESVDNYGISFMKWFQQKPGQPPKLLIYAASNQGSGVPDRFSGSGSGTDFTLTISSLQAEDVAVYYCQQSKEVPWTFGGGTKVEIKR
notes: HC linker short, LC linker short; also called DVD444H; DVD444L

EC50: 8 nM
B9: DVD462 (bispecific antibody, IgG1)
VH: B8 VH
VL: B2 VL
notes: HC linker short, LC linker long; also called DVD462H; DVD462L

EC50: 1.63 nM
B10: DVD456 (bispecific antibody, IgG1)
VH: B2 VH
VL: B8 VL
notes: HC linker long, LC linker short; also called DVD456H; DVD456L

EC50: 24.6 nM
B11: DVD516 (bispecific antibody, IgG1)
VH: EVQLVESGGGLVQPGGSLRLSCAASGFTINASWIHWVRQAPGKGLEWVGAIYPYSGYTNYADSVKGRFTISADTSKNTAYLQMNSLRAEDTAVYYCARWGHSTSPWAMDYWGQGTLVTVSSASTKGPEVQLQQSGPELEKPGASVKISCKASGYSFTGYNMNWVKQSNGKSLEWIGNIDPYFGGTNYNQKFKGKATLTVDKSSSTAYMQLKSLTSEDSAVYYCARNYDYDGGCFDYWGQGTTLTVSS
VL: DIQMTQSPSSLSASVGDRVTITCRASQVIRRSLAWYQQKPGKAPKLLIYAASNLASGVPSRFSGSGSGTDFTLTISSLQPEDFATYYCQQSNTSPLTFGQGTKVEIKRTVAAPQAVVTQESALTTSPGETVTLTCRSSTGAVTTSNYANWVQEKPDHLFTGLIGGTNNRAPGVPARFSGSLIGDKAALTITGAQTEDEAIYFCALWYSNHWVFGGGTKLTVLG
notes: DVD-Ig, outer AB071 / inner AB073; HC linker short, LC linker short; also called DVD516H; DVD516L

EC50: 15.6 nM
B12: DVD449 (bispecific antibody, IgG1)
VH: B7 VH
VL: B6 VL
notes: HC linker long, LC linker long; also called DVD449H; DVD449L
